Target: Full length human CD40 (huCD40) on cells (human) (UniProt P25942)
Assay: cell-based or functional assay

Chain of CP-870,893 (antibody) (VH): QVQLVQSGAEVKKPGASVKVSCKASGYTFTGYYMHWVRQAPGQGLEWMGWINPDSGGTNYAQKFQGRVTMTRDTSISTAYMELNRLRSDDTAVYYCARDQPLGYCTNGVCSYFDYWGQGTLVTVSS
Chain of CP-870,893 (antibody) (VL): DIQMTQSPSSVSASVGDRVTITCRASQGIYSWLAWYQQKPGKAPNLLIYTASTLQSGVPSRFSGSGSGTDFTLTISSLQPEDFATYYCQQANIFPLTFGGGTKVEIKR
Chain of Full length human CD40 (huCD40) on cells (human) (P25942 21-277): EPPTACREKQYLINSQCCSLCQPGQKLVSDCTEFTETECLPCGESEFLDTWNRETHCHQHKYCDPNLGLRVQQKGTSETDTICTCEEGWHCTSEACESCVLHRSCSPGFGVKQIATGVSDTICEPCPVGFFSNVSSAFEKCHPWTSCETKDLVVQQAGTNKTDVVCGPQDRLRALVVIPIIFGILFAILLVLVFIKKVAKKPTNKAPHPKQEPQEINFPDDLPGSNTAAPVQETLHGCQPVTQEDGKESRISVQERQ

- B cells EC50, CD23 surface expression, no cross-linker: 3.17 ng/mL
- B cells EC50, CD80 surface expression, no cross-linker: 7.34 ng/mL
- B cells EC50, CD83 surface expression, no cross-linker: 4.28 ng/mL
- B cells EC50, CD86 surface expression, no cross-linker: 4.04 ng/mL
- B cells EC50, HLA-DR surface expression, no cross-linker: 8.15 ng/mL
- DC EC50, CD80 surface expression, no cross-linker: 44.7 ng/mL
- DC EC50, CD83 surface expression, no cross-linker: 245 ng/mL
- DC EC50, CD86 surface expression, no cross-linker: 133 ng/mL
- DC EC50, HLA-DR surface expression, no cross-linker: 242 ng/mL
Substance: CP-870,893 (antibody)
